# Data reported in patent US20220227815A1, “COMPOSITIONS AND METHODS USEFUL IN TREATING BRAIN DISEASES” (University of Kansas, priority 2019, published 2022).
# B1: BDNF: recombinant brain-derived neurotrophic factor (13 kDa monomer), Peprotech (protein, UniProt P23560 19-247, looked up)
# Neurotrophic factor BDNF …: APMKEANIRGQGGLAYPGVRTHGTLESVNGPKAGSRGLTSLADTFEHVIEELLDEDQKVRPNEENNKDADLYTSRVMLSSQVPLEPPLLFLLEEYKNYLDAANMSMRVRRHSDPARRGELSVCDSISEWVTAADKKTAVDMSGGTVTVLEKVPVSKGQLKQYFYETKCNPMGYTKEGCRGIDKRHWNSQCRTTQSYVRALTMDSKKRIGWRFIRIDTSCVCTLTIKRGR
# Test system: recombinant BDNF and pTrkB
# Assay: Western blot detection of recombinant BDNF and pTrkB in brain
# Assay type: in vivo, SJL/elite mice
# Conditions: BDNF 5.71 nmol/kg i.v. with or without ADTC5 10 μmol/kg; 20 min; n=3
# Procedure: Female SJL/elite mice, 5 weeks of age (Charles River) were initially intravenously injected via lateral tail vein with 5.71 nmol/kg BDNF (Peprotech, Rocky Hill, N.J.) with (n=3) or without (n=3) 10 μmol/kg ADTC5. BDNF was allowed to circulate for 20-30 min prior to euthanasia via CO2. Immediately following euthanasia, mice were transcardially perfused with protease inhibitor infused TRIS buffer (pH 7.4). The brains of the mice were extracted and placed in the perfusate buffer on ice. For Western blotting, 100-150 mg of brain tissue was sectioned from the most ventral-posterior portion of the brain and placed in 200-250 μL of solution mixture containing 66% tissue protein extraction reagent (TPER; Thermo Fisher, Waltham, […].) and 33% […] neural protein extraction reagent (NPER; Thermo Fisher) with protease and phosphatase inhibitors (Thermo Fisher). […] These bands were not densiometrically analyzed due to high background signal; however, they are shown for qualitative analysis.
# To improve the level of detection of BDNF and pTrkB bands via Western blot, the above process was repeated with an increase in dosages of BDNF. […] These images were not quantified due to the variation in dosing regiments; however, they are provided for qualitative analysis of BDNF brain depositions.
molecule,measurement,value
B1,detection of BDNF bands in the brain,undetected
